Literature values, collected in article PMC4768738.

Legend:
[1] = target: p55 (Homo sapiens) (UniProt Q00013)
[2] = target: ankyrin (Homo sapiens) (UniProt P16157)
UniProt P16157, sequence (P16157 whole entry): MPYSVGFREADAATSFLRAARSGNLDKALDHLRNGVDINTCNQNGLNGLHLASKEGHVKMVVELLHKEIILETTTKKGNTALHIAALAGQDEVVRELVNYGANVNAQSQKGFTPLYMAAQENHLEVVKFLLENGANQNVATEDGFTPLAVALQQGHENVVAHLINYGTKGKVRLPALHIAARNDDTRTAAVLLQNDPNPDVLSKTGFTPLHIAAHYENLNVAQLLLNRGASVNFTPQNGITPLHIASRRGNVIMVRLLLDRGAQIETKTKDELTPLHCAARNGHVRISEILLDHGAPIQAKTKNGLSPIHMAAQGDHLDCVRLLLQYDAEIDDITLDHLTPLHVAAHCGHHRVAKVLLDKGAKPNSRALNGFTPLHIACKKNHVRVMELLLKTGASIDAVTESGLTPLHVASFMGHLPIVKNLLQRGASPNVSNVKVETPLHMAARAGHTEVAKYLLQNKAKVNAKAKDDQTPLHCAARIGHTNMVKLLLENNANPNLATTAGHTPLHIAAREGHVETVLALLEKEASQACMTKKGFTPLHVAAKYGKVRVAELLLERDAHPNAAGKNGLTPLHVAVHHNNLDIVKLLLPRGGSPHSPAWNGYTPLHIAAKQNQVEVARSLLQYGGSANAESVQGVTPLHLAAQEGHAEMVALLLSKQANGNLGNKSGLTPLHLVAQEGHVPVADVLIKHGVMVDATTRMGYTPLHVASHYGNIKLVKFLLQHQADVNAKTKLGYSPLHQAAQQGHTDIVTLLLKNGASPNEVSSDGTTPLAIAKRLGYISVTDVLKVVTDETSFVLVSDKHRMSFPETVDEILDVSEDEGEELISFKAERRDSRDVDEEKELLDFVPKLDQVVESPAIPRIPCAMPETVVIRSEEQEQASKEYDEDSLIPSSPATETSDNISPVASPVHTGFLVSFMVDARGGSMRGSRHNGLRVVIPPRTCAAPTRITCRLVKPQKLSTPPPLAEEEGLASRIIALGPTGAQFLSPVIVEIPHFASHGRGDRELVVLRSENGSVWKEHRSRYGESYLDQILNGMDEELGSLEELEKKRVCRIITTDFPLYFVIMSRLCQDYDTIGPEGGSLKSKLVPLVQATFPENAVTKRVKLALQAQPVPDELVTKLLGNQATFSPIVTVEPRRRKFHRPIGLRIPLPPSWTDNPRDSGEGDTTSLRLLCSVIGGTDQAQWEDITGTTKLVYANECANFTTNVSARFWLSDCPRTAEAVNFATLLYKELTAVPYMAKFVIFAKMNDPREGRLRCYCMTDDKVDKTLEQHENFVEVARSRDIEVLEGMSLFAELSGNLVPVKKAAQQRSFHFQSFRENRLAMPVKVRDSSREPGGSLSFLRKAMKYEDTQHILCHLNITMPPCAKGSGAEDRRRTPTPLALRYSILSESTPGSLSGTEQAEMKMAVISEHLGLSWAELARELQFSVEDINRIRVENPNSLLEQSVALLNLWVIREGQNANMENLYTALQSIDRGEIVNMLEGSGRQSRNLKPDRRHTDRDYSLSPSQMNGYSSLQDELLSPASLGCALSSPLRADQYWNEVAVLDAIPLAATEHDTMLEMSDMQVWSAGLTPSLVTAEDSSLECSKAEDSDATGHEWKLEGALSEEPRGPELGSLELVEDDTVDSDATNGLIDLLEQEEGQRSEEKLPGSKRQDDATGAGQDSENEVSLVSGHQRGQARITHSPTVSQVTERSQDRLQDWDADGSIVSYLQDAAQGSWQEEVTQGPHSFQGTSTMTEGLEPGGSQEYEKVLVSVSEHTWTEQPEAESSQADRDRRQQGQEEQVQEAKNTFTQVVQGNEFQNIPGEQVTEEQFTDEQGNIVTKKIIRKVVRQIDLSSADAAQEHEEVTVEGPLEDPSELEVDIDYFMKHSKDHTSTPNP

UniProt Q00013, sequence (Q00013 2-466): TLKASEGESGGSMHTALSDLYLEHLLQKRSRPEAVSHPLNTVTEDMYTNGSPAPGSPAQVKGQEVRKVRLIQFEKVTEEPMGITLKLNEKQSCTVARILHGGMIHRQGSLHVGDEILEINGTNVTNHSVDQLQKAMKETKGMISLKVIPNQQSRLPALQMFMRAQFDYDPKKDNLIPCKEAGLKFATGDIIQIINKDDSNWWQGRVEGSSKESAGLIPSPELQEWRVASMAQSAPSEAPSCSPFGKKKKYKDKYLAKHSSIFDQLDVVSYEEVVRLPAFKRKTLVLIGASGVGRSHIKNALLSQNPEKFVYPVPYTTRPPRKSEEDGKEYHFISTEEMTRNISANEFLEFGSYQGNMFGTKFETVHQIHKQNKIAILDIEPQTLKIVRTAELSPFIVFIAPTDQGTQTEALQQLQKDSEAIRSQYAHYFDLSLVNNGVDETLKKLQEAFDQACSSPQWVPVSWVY

Row | Kd [1] | Kd [2] | Substance
1 | 100 nM |  | protein 4.1R (from UniProt P11171)
2 |  | 100 nM | protein 4.2 (from UniProt P16452)
